B1: SRP2900-G01 (antibody, IgG1, V domains shown)
VH: EVQLVESGGGLVQPGGSLRLSCAASGFTIFDYTIHWVRQAPGKGLEWVGYIDPSNGYTFYADSVKGRFTISADTSKNTAYLQVNSLRAEDTAVYYCARDIQSVSGEFDYWGQGTLVTVSS
VL: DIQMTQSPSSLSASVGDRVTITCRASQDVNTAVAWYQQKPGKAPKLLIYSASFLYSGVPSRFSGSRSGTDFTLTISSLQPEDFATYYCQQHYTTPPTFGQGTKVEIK
B2: SRP2900-G08 (antibody, IgG1, V domains shown)
VH: EVQLVESGGGLVQLGGSLRLSCAASGFTIGGYIIHWVRQAPGKGLEWVGYIDPSNGYTYYADSVKGRFTISADTSKNTAYLQMNSLRAEDTAVYYCARDIQSVSGEFDYWGQGTLVTVSS
VL: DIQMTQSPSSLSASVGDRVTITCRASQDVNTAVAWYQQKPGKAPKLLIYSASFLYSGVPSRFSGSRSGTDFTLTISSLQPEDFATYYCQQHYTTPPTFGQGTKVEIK
B3: SRP2900-G11 (antibody, IgG1, V domains shown)
VH: EVQLVESGGGLVQPGGSSRLSCAASGFTIYDYIIHWVRQAPGKGLEWVGYIDPSNGYTDYADSVKGRFTISADTSKNTAYLQMNSLRAEDTAVYYCARDIQSVSGEFDYWGQGTLVTVSS
VL: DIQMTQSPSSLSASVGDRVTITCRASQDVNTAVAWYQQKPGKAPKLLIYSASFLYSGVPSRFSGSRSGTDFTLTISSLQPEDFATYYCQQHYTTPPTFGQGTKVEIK
B4: SRP2900-E04 (antibody, IgG1, V domains shown)
VH: EVQLVESGGGLVQPGGSLRLSCAASGFTIPDYWIHWVRQAPGKGLEWVGYIDPYSGSTFYADSVKGRFTISADTSKNTAYLQMNSLRAEDTAVYYCARADYYYVDEYLDYWGQGTLVTVSS
VL: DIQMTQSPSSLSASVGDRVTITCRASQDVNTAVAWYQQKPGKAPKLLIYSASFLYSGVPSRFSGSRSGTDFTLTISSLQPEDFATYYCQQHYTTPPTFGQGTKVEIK
B5: SRP2900-A03 (antibody, IgG1, V domains shown)
VH: EVQLVESGGGLVQPGGSLRLSCAASGFTIPSYWIHWVRQAPGKGLEWVGYIDPANGATYYADSVKGRFTISADTSKNTAYLQMNSLRAEDTAVYYCARADYFYVDEYLDYWGQGTLVTVSS
VL: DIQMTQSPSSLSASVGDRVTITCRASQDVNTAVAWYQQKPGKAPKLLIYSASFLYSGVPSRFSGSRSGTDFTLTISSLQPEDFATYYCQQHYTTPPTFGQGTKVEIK
B6: SRP2900-A04 (antibody, IgG1, V domains shown)
VH: EVQLVESGGGLVQPGGSLRLSCAASGFTISGYWIHWVRQAPGKGLEWVGYIDPYNGATYYADSVKGRFTISADTSKNAAYLQMNSLRAEDTAVYYCARADYFYIDEYWDYWGQGTLVTVSS
VL: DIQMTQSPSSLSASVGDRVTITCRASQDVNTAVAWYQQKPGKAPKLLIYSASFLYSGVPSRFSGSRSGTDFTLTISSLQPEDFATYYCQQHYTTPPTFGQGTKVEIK
B7: SRP2900-E01 (antibody, IgG1, V domains shown)
VH: EVQLVESGGGLVQPGGSLRLSCAASGFTISDYWIHWVRQAPGKGLEWVGYIDPSNGYTYYADSVKGRFTISADTSKNTAYLQMNSLRAEDTAVYYCARDYGSLQVFIDYWGQGTLVTVSS
VL: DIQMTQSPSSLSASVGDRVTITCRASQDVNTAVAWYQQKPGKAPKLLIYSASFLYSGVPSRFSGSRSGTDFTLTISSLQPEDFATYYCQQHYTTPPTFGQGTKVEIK
B8: SRP2900-G06 (antibody, IgG1, V domains shown)
VH: EVQLVESGGGLVQPGGSLRLSCAASGFTISDYIIHWVRQAPGKGLEWVGYIDPSNGYTYYADSVKGRFTISADTSKNTAYLQMNSLRAEDTAVYYCARDDQSLSSPFDYWGQGTLVTVSS
VL: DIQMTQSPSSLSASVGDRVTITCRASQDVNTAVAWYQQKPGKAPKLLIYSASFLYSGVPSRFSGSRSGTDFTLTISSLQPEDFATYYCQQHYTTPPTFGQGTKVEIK
B9: SRP2900-F07 (antibody, IgG1, V domains shown)
VH: EVQLVESGGGLVQPGGSLRLSCAASGFTISDYTIHWVRQAPGKGLEWVGYIDPSNGYTYHADSVKGRFTISADTSKNTAYLQMNSLRAEDTAVYYCARDPQSVSSPFDYWGQGTLVTVSS
VL: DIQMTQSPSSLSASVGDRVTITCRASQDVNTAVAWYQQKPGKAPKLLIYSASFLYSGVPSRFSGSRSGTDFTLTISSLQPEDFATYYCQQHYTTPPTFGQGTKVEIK
B10: SRP2900-E11 (antibody, IgG1, V domains shown)
VH: EVQLVESGGGLVQPGGSLRLSCAASGFTISYYIIHWVRQAPGKGLEWVGYIDPSNGYTYYADSVKGRFTISADTSKNTAYLQMNSLRAEDTAVYYCARDVQSVSGEFDYWGQGTLVTVSS
VL: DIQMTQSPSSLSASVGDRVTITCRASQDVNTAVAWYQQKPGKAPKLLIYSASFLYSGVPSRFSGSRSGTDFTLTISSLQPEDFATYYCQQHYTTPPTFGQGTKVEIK
B11: SRP2900-G07 (antibody, IgG1, V domains shown)
VH: EVQLVESGGGLVQPGGSLRLSCAASGFTISDYVIHWVRQAPGKGLEWVGYIDPSNGYTYYADSVKGRFTISADTSKNTAYLQMNSLRAEDTAVYYCARDPQSLTSPFDYWGQGTLVTVSS
VL: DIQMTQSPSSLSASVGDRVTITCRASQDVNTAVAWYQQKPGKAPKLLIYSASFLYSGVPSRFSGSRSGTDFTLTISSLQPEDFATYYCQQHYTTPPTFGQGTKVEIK
B12: SRP2900-G09 (antibody, IgG1, V domains shown)
VH: EVQLVESGGGLVQPGGSLRLSCAASGFTISDYIIHWVRQAPGKGLEWVGYIDPSNGYTYYADSVKGRFTISADTSKNTAYLQMNSLRAEDTAVYYCARDPQSLTSPFDYWGQGTLVTVSS
VL: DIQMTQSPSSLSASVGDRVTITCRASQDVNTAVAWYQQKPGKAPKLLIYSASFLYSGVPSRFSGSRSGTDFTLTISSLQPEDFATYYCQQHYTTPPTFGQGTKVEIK
B13: SRP2900-E05 (antibody, IgG1, V domains shown)
VH: EVQLVESGGGLVQPGGSLRLSCAASGFTISGYWIHWVRQAPGKGLEWVGYIDPANGFTYYADSVKGRFTISADTSKNTAYLQMNSLRAEDTAVYYCARDYGSVRVFLDYWGQGTLVTVSS
VL: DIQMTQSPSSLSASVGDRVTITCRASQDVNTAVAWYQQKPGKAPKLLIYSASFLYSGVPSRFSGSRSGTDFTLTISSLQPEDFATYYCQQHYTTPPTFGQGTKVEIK
B14: SRP2900-E03 (antibody, IgG1, V domains shown)
VH: EVQLVESGGGLVQPGGSLRLSCAASGFTISDYWIHWVRQAPGKGLEWVGYIDPQNGWTYYADSVKGRFTISADTSKNTAYLQMNSLRAEDTAVYYCARDYGSLEVSLDYWGQGTLVTVSS
VL: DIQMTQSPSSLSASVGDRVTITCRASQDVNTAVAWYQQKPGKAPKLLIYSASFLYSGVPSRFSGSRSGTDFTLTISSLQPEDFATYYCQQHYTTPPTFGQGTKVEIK
B15: SRP2900-G10 (antibody, IgG1, V domains shown)
VH: EVQLVESGGGLVQPGGSLRLSCAASGFTIPDYIIHWVRQAPGKGLEWVGYIDPSNGYTYYADSVKGRFTISADTSKNTAYLQMNSLRAEDTAVYYCARDIQSVSGEFDYWGQGTLVTVSS
VL: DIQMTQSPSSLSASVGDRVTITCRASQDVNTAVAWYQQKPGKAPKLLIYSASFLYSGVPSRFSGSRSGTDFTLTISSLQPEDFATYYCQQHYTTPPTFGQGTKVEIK
B16: SRP2900-G04 (antibody, IgG1, V domains shown)
VH: EVQLVESGGGLVQPGGSLRLSCAASGFTTRDYVIHWVRQAPGKGLEWVGYIDPSNGYTYYADSVKGRFTISADTSKNTAYLQMNSLRAEDTAVYYCARDPQSLSSPFDYWGQGTLVTVSS
VL: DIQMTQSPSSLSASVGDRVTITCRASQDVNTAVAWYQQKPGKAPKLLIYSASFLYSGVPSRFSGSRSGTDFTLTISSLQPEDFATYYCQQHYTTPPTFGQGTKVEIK
B17: SRP2900-E09 (antibody, IgG1, V domains shown)
VH: EVQLVESGGGLVQPGGSLRLSCAASGFTISQYWIHWVRQAPGKGLEWVGYIDPYNGYTYYADSVKGRFTISADTSKNTAHLQMNSLRAEDTAVYYCARDYGSFRVQLDYWGQGTLVTVSS
VL: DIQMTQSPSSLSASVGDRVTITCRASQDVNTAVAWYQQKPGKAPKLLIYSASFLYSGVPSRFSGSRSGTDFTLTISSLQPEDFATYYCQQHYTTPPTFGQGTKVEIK
B18: SRP2900-E10 (antibody, IgG1, V domains shown)
VH: EVQLVESGGGLVQPGGSLRLSCAASGFTISDYWIHWVRQAPGKGLEWVGYIDPANGYTYYADSVKGRFTISADTSKNTAYLQMNSLRAEDTAVYYCARDYGSLHVQLDYWGQGTLVTVSS
VL: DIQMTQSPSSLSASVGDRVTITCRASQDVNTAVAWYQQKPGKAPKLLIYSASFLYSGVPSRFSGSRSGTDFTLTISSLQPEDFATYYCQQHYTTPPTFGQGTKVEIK
B19: SRP2900-F05 (antibody, IgG1, V domains shown)
VH: EVQLVESGGGLVQPGGSLRLSCAASGFTINDYVIHWVRQAPGKGLEWVGYIDPSNGYTYYADSVKGRFTISADTSKNTAYLQMNSLRAEDTAVYYCARDDQSLSSPFDYWGQGTLVTVSS
VL: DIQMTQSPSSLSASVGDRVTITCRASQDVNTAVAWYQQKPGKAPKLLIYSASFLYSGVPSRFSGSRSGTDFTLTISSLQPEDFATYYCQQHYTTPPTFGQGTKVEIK
B20: SRP2900-F10 (antibody, IgG1, V domains shown)
VH: EVQLVESGGGLVQPGGSLRLSCAASGFTISDYVIHWVRQAPGKGLEWVGYIDPSNGYTYYADSVKGRFTISADTSKNTAYLQMNSLRAEDTAVYYCARDPQSLFYPFDYWGQGTLVTVSS
VL: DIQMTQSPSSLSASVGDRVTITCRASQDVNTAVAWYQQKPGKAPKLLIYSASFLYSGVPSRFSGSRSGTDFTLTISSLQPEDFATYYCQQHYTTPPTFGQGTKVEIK
B21: SRP2900-F04 (antibody, IgG1, V domains shown)
VH: EVQLVESGGGLVQPGGSLRLSCAASGFTISDYWIHWVRQAPGKGLEWVGYIDPYNGFTYYADSVKGRFTISADTSKNTAYLQMNSLRAEDTAVYYCARDYGSLQVFIDYWGQGTLVTVSS
VL: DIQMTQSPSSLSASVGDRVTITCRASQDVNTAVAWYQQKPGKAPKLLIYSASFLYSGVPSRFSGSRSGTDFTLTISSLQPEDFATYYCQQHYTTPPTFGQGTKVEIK
B22: SRP2900-E08 (antibody, IgG1, V domains shown)
VH: EVQLVESGGGLVQPGGSLRLSCAASGFTITDYWIHWVRQAPGKGLEWVGYIDPYNGYTYYADSVKGRFTISADTSKNTAYLQMNSLRAEDTAVYYCARDYGSLQVFIDYWGQGTLVTVSS
VL: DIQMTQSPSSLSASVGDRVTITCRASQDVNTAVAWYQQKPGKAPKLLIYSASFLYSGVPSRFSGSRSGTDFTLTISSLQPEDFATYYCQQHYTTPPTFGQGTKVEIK

Sequence of tissue factor reagent of the Tissue Factor Activity Assay Kit (Abcam #ab108906) (P13726 33-295 limits assumed): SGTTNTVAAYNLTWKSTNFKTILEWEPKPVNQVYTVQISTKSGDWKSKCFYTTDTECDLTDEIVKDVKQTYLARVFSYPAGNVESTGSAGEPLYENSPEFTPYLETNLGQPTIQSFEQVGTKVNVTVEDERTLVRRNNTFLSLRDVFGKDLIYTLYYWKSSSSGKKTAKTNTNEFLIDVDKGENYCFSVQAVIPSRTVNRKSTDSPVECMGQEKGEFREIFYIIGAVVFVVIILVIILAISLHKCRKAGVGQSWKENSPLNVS

This assay concerns the target tissue factor reagent of the Tissue Factor Activity Assay Kit (Abcam #ab108906) (UniProt P13726 33-295, limits assumed). Description: cell-based or functional assay.
Regarding B1, the “FX conversion (% inhibition), 1000 nM antibody” value (“FX conversion (% inhibition)” for short) came out at 25.1%.

B2: the “FX conversion (% inhibition)” value was 38.9%. With B3, the “FX conversion (% inhibition)” value was 40.9%.

On to B4, for which the “FX conversion (% inhibition)” value stood at 25.9%. To B5 belongs 26.3%; to B6, 38.6%. Take B7: the “FX conversion (% inhibition)” value amounted to 40.4%. Then B8, with 21.4%; and B9, with 30.3%. For B10, the “FX conversion (% inhibition)” value came to 39.9%.

As for B11, the “FX conversion (% inhibition)” value was 38.3%. In the case of B12, the “FX conversion (% inhibition)” value was 30.4%. Then B13, with 23.5%; and B14, with 48.7%; and B15, with 48.7%. Turning to B16, the “FX conversion (% inhibition)” value was determined as 31.2%. Then B17, with 32.2%. Then B18, with 50.7%; and B19, with 25.1%. To B20 belongs 32.5%. Take B21: the “FX conversion (% inhibition)” value is 47.3%. Then B22, with 45.8%.

The record behind these values is US20250122306A1 (SUTRO BIOPHARMA, published 2025).
